Source: publication PMC9294072
Read-outs that look alike come from different tables or passages of the source.

How the values were obtained:
[1] = target: human N-terminal acetyltransferase D (hNatD) (human) (UniProt Q86UY6)
[2] = target: human N-terminal acetyltransferase D (hNatD) (human) (UniProt Q86UY6); remark: listed apart in the source
[3] = target: human N-terminal acetyltransferase D (hNatD) (human) (UniProt Q86UY6); remark: listed apart in the source

Substance	kcat/Km of Nα-acetylation by hNatD (continuous fluorescence assay) [1]	kcat/Km of Nα-acetylation by hNatD (continuous fluorescence assay) [2]	further results
oncohistone H4/H2A pentapeptide G4D (from UniProt P62805 2-6)	483 M⁻¹ s⁻¹		
oncohistone H4/H2A pentapeptide G4V (from UniProt P62805 2-6)	3500 M⁻¹ s⁻¹		
oncohistone H4/H2A pentapeptide R3C (SGCGK)			kcat/Km of Nα-acetylation by hNatD (MALDI-MS assay) [2]: 1830 M⁻¹ s⁻¹
oncohistone H4/H2A pentapeptide R3H (from UniProt P62805 2-6)		4830 M⁻¹ s⁻¹	
oncohistone H4/H2A pentapeptide R3Q (from UniProt P62805 2-6)		157 M⁻¹ s⁻¹	
oncohistone H4/H2A pentapeptide S1L (from UniProt P62805 2-6)			kcat/Km of Nα-acetylation by hNatD (continuous fluorescence assay) [3]: 4.17 M⁻¹ s⁻¹
